Laboratory results from patent publication US20120022129.

Biological target: flag-tagged WT HDAC2 (1-488)
Sequence (chain, as listed by the source): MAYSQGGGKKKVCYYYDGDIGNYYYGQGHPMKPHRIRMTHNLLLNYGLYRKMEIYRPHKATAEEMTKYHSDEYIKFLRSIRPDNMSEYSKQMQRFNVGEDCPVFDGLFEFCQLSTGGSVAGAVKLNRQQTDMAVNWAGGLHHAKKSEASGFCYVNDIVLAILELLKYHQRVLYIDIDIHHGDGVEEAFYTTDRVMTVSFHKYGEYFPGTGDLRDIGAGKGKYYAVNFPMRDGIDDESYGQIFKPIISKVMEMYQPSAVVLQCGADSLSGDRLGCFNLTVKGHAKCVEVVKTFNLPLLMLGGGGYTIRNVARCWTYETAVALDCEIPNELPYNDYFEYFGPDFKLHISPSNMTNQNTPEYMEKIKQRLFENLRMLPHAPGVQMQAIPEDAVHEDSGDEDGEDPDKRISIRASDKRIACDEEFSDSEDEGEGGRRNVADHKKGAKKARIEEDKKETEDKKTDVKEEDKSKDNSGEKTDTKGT

B1: protein kinase CK2 catalytic subunit CK2α (protein)
chain: MSGPVPSRARVYTDVNTHRPREYWDYESHVVEWGNQDDYQLVRKLGRGKYSEVFEAINITNNEKVVVKILKPVKKKKIKREIKILENLRGGPNIITLADIVKDPVSRTPALVFEHVNNTDFKQLYQTLTDYDIRFYMYEILKALDYCHSMGIMHRDVKPHNVMIDHEHRKLRLIDWGLAEFYHPGQEYNVRVASRYFKGPELLVDYQMYDYSLDMWSLGCMLASMIFRKEPFFHGHDNYDQLVRIAKVLGTEDLYDYIDKYNIELDPRFNDILGRHSRKRWERFVHSENQHLVSPEALDFLDKLLRYDHQSRLTAREAMEHPYFYTVVKDQARMGSSSMPGGSTPVSSANMMSGISSVPTPSPLGPLAGSPVIAAANPLGMPVPAAAGAQQ
HDAC2 serine phosphorylation (phospho-serine western blot of immunoprecipitated flag-tagged HDAC2): HDAC2 phosphorylation seemed to correlate with the level of CK2α binding
